B1: Pistol ribozyme (parent)
chain: GGGUCGUUGUUCCAUAAUCGCGUGGAUAUGGCACGCAAGUUUCUACCGGGCACCGUAAAUGUCCGACUGGAGCCGUUCGGGCGGCUAUAAACAGACCUCAGGCCCGAAGCGUGGCGGCACCUGCCGCCGGUGGUAAAAAAGAUCGGAAGAGCACACGUCU

Variants of: B1
Assay: aptazyme ON/OFF ratio, guanine; higher = stronger switching; co-transcriptional cleavage with and without guanine

| Variant | aptazyme ON/OFF ratio |
| --- | --- |
| U7C U8C G9U U10G U11G C13A | 1.1 |
| U7C U8C G9U U10G U11G C13U | 1.08 |
| U7C U8C G9U U10G U11G C13G | 1.13 |
| U7C U8C U10A U11A C13A | 1.26 |
| U7C U8C U10A U11A C13U | 1.29 |
| U7C U8C U10A U11A C13G | 1.14 |
| U7C U8C U10C U11C C12G | 1.2 |
| U7C U8C U10C U11C C12A | 1.24 |
| U7C U8C U10C U11C C12U | 1.26 |
| U7C U8C U10A C12G C13U | 1.07 |
| U7C U8C U10A C12G C13A | 1.12 |
| U7C U8C U10A C12G C13G | 1.12 |
| U7C U8C U10C U11C C12A C13A | 1.34 |
| U7C U8C U10C U11C C12A C13U | 1.24 |
| U7C U8C U10C U11C C12A C13G | 1.24 |
| U7C U8C U10C U11A C12G C13A | 1.15 |
| U7C U8C U10C U11A C12G C13G | 1.29 |
| U7C U8C U10C U11A C12G C13U | 1.2 |
| U7C U8C U10C C13A | 1.24 |
| U7C U8C U10C C13G | 1.24 |
| U7C U8C U10C C13U | 2.08 |
| U7C U8C U10A C13G | 1.05 |
| U7C U8C U10A C13A | 1.06 |
| U7C U8C U10A C13U | 1.04 |

| Variant | aptazyme ON/OFF ratio |
| --- | --- |
| U7C U8C U10C C12U C13U | 1.45 |
| U7C U8C U10C C12U C13A | 1.35 |
| U7C U8C U10C C12U C13G | 1.34 |
| U7C U8C G9U U10G U11G C12G C13U | 1.06 |
| U7C U8C U10C U11A C13A | 1.33 |
| U7C U8C U10C U11A C13G | 1.18 |
| U7C U8C U10C U11A C13U | 1.31 |
| U7C U8C U10A U11A C12A C13U | 1.13 |
| U7C U8C U10A U11A C12A C13G | 1.11 |
| U7C U8C U10A U11A C12A C13A | 1.1 |
| U7C U8C U10A U11A C12U | 1.16 |
| U7C U8C U10A U11A C12A | 1.19 |
| U7C U8C U10A U11A C12G | 1.24 |
| U7C U8C U10A U11C C12A C13G | 1.16 |
| U7C U8C U10A U11C C12A C13A | 1.13 |
| U7C U8C U10A U11C C12A C13U | 1.15 |
| U7C U8C U10C C12G C13A | 1.24 |
| U7C U8C U10C C12G C13G | 1.18 |
| U7C U8C U10C C12G C13U | 1.2 |
| U7C U8C U10A U11A C12G C13G | 1.21 |
| U7C U8C U10A U11A C12G C13A | 1.14 |
| U7C U8C U10A U11A C12G C13U | 1.11 |
| U7C U8C U10A U11G C12G C13U | 1.14 |
| U7C U8C U10A U11G C12G C13G | 1.22 |

| Variant | aptazyme ON/OFF ratio |
| --- | --- |
| U7C U8C U10A U11G C12G C13A | 1.25 |
| U7C U8C G9U U11A | 1.64 |
| U7C U8C G9U U11C | 1.1 |
| U7C U8C G9U U11G | 1.16 |
| U7C U8C U10A C12A C13G | 1.06 |
| U7C U8C U10A C12A C13A | 1.05 |
| U7C U8C U10A C12A C13U | 1.04 |
| U7C U8C G9U U11A C12U C13G | 1.12 |
| U7C U8C G9U U11A C12U C13A | 1.18 |
| U7C U8C G9U U11A C12U C13U | 1.2 |
| U7C U8C G9U U10G U11G C12U C13U | 1.08 |
| U7C U8C G9U U10G U11G C12U C13A | 1.08 |
| U7C U8C G9U U10G U11G C12U C13G | 1.09 |
| U7C U8C G9U U11A C12G | 1.18 |
| U7C U8C G9U U11A C12A | 1.21 |
| U7C U8C G9U U11A C12U | 1.25 |
| U7C U8C G9U U11C C12A C13U | 1.14 |
| U7C U8C G9U U11C C12A C13G | 1.04 |
| U7C U8C G9U U11C C12A C13A | 1.06 |
| U7C U8C G9U U11A C12A C13G | 1.1 |
| U7C U8C G9U U11A C12A C13U | 1.28 |
| U7C U8C G9U U11A C12A C13A | 1.17 |
| U7C U8C U10A C12U C13A | 1.06 |
| U7C U8C U10A C12U C13G | 1.06 |

| Variant | aptazyme ON/OFF ratio |
| --- | --- |
| U7C U8C U10A C12U C13U | 1.03 |
| U7C U8C G9U U11G C13U | 1.16 |
| U7C U8C G9U U11G C13A | 1.21 |
| U7C U8C G9U U11G C13G | 1.05 |
| U7C U8C G9U U11C C13U | 1.02 |
| U7C U8C G9U U11C C13A | 1.02 |
| U7C U8C G9U U11C C13G | 1.02 |
| U7C U8C U10A U11C C12U C13U | 1.07 |
| U7C U8C U10A U11C C12U C13G | 1.1 |
| U7C U8C U10A U11C C12U C13A | 1.08 |
| U7C U8C U10A | 1.35 |
| U7C U8C U10C | 1.26 |
| U7C U8C U10C C12A | 1.39 |
| U7C U8C U10C C12G | 1.16 |
| U7C U8C U10C C12U | 1.36 |
| U7C U8C G9U U11C C12U C13U | 1.02 |
| U7C U8C G9U U11C C12U C13A | 1.03 |
| U7C U8C G9U U11C C12U C13G | 1.05 |
| U7C U8C U10A C12U | 1.12 |
| U7C U8C U10A C12G | 1.08 |
| U7C U8C U10A C12A | 1.06 |
| U7C U8C U10A U11G C12U | 1.25 |
| U7C U8C U10A U11G C12A | 1.13 |
| U7C U8C U10A U11G C12G | 1.41 |

| Variant | aptazyme ON/OFF ratio |
| --- | --- |
| U7C U8C U10C U11C | 1.46 |
| U7C U8C U10C U11A | 1.9 |
| U7C U8C U10A U11C C13A | 1.07 |
| U7C U8C U10A U11C C13G | 1.1 |
| U7C U8C U10A U11C C13U | 1.03 |
| U7C U8C G9U U10G U11G C12U | 1.1 |
| U7C U8C U10C U11A C12A C13A | 1.33 |
| U7C U8C U10C U11A C12A C13U | 1.45 |
| U7C U8C U10C U11A C12A C13G | 1.17 |
| U7C U8C G9U U11G C12G C13G | 1.14 |
| U7C U8C G9U U11G C12G C13U | 1.05 |
| U7C U8C G9U U11G C12G C13A | 1.09 |
| U7C U8C G9U U11G C12A C13G | 1.11 |
| U7C U8C G9U U11G C12A C13A | 1.19 |
| U7C U8C G9U U11G C12A C13U | 1.14 |
| U7C U8C G9U U11G C12A | 1.19 |
| U7C U8C G9U U11G C12U | 1.19 |
| U7C U8C G9U U11G C12G | 1.19 |
| U7C U8C U10C U11C C12U C13A | 1.31 |
| U7C U8C U10C U11C C12U C13G | 1.15 |
| U7C U8C U10C U11C C12U C13U | 1.19 |
| U7C U8C U10A U11G C13G | 1.18 |
| U7C U8C U10A U11G C13A | 1.25 |
| U7C U8C U10A U11G C13U | 1.18 |

| Variant | aptazyme ON/OFF ratio |
| --- | --- |
| U7C U8C G9U U11C C12U | 1.04 |
| U7C U8C G9U U11C C12A | 1.17 |
| U7C U8C G9U U11C C12G | 1.22 |
| U7C U8C U10C U11C C13A | 1.31 |
| U7C U8C U10C U11C C13G | 1.28 |
| U7C U8C G9U U11A C13G | 1.07 |
| U7C U8C G9U U11A C13A | 1.17 |
| U7C U8C G9U U11A C13U | 1.15 |
| U7C U8C U10C U11A C12U C13A | 1.33 |
| U7C U8C U10C U11A C12U C13U | 1.29 |
| U7C U8C U10C U11A C12U C13G | 1.25 |
| U7C U8C U10A U11G C12A C13A | 1.06 |
| U7C U8C U10A U11G C12A C13U | 1.12 |
| U7C U8C U10A U11G C12A C13G | 1.11 |
| U7C U8C U10C C12A C13A | 1.6 |
| U7C U8C U10C C12A C13G | 1.14 |
| U7C U8C U10C C12A C13U | 1.35 |
| U7C U8C U10A U11G C12U C13A | 1.11 |
| U7C U8C U10A U11G C12U C13U | 1.15 |
| U7C U8C U10A U11G C12U C13G | 1.15 |
| U7C U8C G9U U11G C12U C13A | 1.1 |
| U7C U8C G9U U11G C12U C13G | 1.07 |
| U7C U8C G9U U11G C12U C13U | 1.09 |
| U7C U8C U10A U11C C12A | 1.29 |

| Variant | aptazyme ON/OFF ratio |
| --- | --- |
| U7C U8C U10A U11C C12G | 1.26 |
| U7C U8C U10A U11C C12U | 1.05 |
| U7C U8C U10A U11C | 1.03 |
| U7C U8C U10A U11A | 1.63 |
| U7C U8C U10A U11G | 1.37 |
| U7C U8C U10A U11C C12G C13A | 1.22 |
| U7C U8C U10A U11C C12G C13G | 1.22 |
| U7C U8C U10A U11C C12G C13U | 1.29 |
| U7C U8C U10A U11A C12U C13G | 1.28 |
| U7C U8C U10A U11A C12U C13U | 1.16 |
| U7C U8C U10A U11A C12U C13A | 1.13 |
| U7C U8C U10C U11C C12G C13A | 1.1 |
| U7C U8C U10C U11C C12G C13G | 1.3 |
| U7C U8C U10C U11C C12G C13U | 1.31 |
| U7C U8C G9U U11A C12G C13U | 1.13 |
| U7C U8C G9U U11A C12G C13G | 1.16 |
| U7C U8C G9U U11A C12G C13A | 1.07 |
| U7C U8C G9U U11C C12G C13G | 1.12 |
| U7C U8C G9U U11C C12G C13U | 1.08 |
| U7C U8C G9U U11C C12G C13A | 1.12 |
| U7C U8C U10C U11A C12A | 1.31 |
| U7C U8C U10C U11A C12G | 1.05 |
| U7C U8C U10C U11A C12U | 1.32 |

— the RNAGym collection of RNA variant scans (doi:10.1021/acssynbio.7b00057)
